The supplement of paper PMC10065799, “High-throughput profiling of sequence recognition by tyrosine kinases and SH2 domains using bacterial peptide display” (eLife, 2023)

What was measured:
Grb2 SH2 = Grb2 SH2 (UniProt P62993); assay: SH2 binding enrichment of the phosphorylated peptide, bacterial display (enrichment ratio); higher = better substrate or ligand; peptides without Tyr show the background
SHP2-C SH2 = assay: as above
c-Src SH2 = assay: as above
FGFR1 = FGFR1 (UniProt P11362); assay: phosphorylation enrichment, bacterial display (enrichment ratio); higher = better substrate or ligand; peptides without Tyr show the background
Sequence of FGFR1 (P11362 whole entry, looked up): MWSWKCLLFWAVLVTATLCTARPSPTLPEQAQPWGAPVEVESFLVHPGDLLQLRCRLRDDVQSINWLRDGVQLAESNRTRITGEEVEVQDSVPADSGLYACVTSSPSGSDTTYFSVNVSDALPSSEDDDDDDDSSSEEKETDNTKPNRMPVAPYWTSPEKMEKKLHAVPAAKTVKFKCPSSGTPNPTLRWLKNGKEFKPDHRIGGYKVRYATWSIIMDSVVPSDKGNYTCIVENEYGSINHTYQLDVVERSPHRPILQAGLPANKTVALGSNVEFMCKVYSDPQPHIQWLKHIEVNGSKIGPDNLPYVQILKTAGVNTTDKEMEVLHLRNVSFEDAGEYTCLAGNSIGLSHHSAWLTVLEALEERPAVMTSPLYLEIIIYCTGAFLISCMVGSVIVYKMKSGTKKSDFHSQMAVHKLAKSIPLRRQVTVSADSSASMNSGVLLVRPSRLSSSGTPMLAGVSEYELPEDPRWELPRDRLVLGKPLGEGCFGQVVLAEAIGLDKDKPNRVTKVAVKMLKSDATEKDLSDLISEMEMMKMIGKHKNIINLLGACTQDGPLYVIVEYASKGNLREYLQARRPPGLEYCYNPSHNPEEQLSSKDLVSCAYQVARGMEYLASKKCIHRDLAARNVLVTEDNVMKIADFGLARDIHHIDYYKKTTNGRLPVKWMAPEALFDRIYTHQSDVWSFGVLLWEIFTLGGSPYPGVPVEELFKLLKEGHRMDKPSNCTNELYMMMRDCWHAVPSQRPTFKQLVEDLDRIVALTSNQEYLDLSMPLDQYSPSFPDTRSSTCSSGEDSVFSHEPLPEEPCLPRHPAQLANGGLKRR

Fyn = Fyn (UniProt P06241); assay: as above
MERTK = MERTK (UniProt Q12866); assay: as above
Sequence of MERTK (Q12866 whole entry, looked up): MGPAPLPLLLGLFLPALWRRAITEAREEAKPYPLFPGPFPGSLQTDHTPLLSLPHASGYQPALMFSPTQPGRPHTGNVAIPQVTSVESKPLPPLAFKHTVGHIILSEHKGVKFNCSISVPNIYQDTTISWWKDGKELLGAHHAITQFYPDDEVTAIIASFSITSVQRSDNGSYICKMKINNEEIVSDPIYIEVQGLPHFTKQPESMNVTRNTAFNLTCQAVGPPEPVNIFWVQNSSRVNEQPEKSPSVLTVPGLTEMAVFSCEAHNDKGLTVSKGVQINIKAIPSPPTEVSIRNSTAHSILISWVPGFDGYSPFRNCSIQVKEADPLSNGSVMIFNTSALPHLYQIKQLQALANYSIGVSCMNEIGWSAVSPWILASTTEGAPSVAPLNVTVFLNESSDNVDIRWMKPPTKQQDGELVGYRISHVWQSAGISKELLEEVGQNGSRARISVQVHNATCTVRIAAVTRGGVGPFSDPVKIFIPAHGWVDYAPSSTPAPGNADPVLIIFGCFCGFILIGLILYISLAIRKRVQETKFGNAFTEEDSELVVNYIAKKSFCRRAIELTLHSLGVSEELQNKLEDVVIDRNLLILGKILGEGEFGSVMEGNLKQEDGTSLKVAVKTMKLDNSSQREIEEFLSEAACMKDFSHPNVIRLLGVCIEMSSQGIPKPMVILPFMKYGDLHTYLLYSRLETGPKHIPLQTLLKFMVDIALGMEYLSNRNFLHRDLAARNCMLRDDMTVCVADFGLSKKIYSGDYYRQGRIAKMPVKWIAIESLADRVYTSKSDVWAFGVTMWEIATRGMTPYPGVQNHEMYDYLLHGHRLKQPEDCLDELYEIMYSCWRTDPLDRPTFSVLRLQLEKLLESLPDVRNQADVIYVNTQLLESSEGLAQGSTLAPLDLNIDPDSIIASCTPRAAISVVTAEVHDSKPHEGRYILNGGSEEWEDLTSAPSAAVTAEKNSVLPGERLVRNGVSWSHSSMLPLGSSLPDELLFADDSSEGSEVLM

EPHB2 = EPHB2 (UniProt P29323); assay: as above
Sequence of EPHB2 (P29323 whole entry, looked up): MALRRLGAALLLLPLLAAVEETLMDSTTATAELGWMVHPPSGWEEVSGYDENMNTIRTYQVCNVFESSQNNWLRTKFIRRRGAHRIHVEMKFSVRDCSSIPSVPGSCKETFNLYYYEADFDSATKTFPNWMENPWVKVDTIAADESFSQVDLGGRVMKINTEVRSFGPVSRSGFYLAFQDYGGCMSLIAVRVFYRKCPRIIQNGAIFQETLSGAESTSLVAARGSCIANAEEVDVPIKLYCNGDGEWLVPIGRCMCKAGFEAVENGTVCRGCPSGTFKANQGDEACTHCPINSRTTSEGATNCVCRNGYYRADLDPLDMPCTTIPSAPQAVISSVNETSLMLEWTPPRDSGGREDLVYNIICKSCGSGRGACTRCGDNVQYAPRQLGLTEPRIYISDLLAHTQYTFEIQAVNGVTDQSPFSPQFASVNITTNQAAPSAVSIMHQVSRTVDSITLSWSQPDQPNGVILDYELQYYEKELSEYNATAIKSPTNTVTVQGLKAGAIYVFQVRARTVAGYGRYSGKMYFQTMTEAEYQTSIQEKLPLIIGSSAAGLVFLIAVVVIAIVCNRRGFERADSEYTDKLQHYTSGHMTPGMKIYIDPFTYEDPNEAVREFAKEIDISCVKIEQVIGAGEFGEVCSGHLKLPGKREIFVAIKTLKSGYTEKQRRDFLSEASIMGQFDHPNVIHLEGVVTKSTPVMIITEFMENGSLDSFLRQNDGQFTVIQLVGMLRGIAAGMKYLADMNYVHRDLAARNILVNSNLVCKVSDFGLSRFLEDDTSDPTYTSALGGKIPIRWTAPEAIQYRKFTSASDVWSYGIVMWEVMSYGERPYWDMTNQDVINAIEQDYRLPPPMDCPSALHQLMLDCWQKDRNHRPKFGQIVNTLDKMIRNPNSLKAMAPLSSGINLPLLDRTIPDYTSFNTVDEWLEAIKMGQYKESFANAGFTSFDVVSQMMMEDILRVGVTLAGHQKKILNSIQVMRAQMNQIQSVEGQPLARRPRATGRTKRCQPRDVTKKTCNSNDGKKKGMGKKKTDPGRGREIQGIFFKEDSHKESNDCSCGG

FGFR3 = FGFR3 (UniProt P22607); assay: as above
Sequence of FGFR3 (P22607 whole entry, looked up): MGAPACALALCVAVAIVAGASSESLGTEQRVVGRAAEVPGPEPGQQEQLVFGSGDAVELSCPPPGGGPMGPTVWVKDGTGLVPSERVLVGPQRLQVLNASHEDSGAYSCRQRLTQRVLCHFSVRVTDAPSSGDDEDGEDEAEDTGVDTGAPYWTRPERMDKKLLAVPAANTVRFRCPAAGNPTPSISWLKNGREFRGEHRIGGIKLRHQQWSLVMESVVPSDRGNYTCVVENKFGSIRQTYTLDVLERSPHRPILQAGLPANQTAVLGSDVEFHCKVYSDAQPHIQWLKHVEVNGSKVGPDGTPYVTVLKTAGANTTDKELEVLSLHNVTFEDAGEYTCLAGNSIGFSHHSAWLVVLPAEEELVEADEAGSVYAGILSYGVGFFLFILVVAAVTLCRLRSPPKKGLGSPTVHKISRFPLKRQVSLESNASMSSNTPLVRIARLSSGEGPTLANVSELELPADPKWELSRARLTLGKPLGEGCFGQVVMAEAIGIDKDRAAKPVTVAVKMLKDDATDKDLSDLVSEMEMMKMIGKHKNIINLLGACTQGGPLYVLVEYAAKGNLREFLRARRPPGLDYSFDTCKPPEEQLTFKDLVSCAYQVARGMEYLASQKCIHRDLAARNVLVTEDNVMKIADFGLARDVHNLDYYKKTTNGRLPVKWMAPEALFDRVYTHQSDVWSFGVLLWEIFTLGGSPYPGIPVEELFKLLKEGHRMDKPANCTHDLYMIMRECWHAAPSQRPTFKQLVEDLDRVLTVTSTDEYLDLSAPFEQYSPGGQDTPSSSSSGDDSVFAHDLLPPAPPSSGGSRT

EPHB1 = EPHB1 (UniProt P54762); assay: as above
Hck = Hck (UniProt P08631); assay: as above
Fer (mouse) = assay: as above
AncSZ = assay: as above
c-Abl (mouse) = assay: as above
Jak2 = Jak2 (UniProt O60674); assay: as above
Sequence of Jak2 (O60674 whole entry, looked up): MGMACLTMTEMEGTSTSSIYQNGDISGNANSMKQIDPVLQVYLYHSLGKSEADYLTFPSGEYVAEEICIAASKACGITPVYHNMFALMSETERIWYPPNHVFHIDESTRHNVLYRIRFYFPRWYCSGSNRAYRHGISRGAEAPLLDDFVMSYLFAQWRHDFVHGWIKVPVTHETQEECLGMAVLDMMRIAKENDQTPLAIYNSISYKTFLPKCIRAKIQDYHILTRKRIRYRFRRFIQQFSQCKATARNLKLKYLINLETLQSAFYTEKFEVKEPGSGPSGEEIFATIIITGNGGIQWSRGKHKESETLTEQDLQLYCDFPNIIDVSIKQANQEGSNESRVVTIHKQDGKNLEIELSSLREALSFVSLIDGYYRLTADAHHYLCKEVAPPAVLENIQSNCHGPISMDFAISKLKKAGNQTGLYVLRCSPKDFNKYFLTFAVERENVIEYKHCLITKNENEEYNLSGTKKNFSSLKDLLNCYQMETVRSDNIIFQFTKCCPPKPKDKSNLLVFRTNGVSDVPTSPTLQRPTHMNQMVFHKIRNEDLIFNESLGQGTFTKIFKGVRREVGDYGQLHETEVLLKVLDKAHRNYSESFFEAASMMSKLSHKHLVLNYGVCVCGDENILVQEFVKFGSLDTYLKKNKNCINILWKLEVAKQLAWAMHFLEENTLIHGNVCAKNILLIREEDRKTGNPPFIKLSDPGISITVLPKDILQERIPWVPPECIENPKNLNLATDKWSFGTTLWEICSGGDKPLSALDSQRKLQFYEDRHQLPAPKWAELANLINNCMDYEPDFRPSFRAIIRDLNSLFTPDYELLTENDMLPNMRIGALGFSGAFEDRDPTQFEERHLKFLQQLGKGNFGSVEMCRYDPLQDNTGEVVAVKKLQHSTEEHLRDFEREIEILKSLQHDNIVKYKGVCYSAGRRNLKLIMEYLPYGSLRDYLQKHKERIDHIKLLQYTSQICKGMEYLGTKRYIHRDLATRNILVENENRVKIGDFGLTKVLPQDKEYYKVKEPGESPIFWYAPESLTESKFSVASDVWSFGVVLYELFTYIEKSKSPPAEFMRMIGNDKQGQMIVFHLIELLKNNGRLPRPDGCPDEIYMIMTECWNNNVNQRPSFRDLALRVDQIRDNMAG

c-Src = assay: as above
Fes = Fes (UniProt P07332); assay: as above
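Wherever SH2 binding enrichment of the phosphorylated peptide, bacterial display is given: peptide library displayed on the E. coli surface as eCPX fusions, selected cells deep-sequenced, score is each peptide's frequency after selection divided by its frequency in the input.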
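Wherever phosphorylation enrichment, bacterial display is given: 11-residue human phosphosite peptides and single-mutation variants displayed on the E. coli surface, counted by deep sequencing, each peptide's frequency after selection divided by its frequency in the unselected input library; frequency after pTyr selection over input frequency; kinase dosed for 20-30% of maximal phosphorylation in three min.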

| Sequence | SH2 binding enrichment (Grb2 SH2) | SH2 binding enrichment (SHP2-C SH2) | SH2 binding enrichment (c-Src SH2) | phosphorylation enrichment (FGFR1) | phosphorylation enrichment (Fyn) | phosphorylation enrichment (MERTK) | phosphorylation enrichment (EPHB2) | phosphorylation enrichment (FGFR3) | phosphorylation enrichment (EPHB1) | phosphorylation enrichment (Hck) | phosphorylation enrichment (Fer (mouse)) | phosphorylation enrichment (AncSZ) | phosphorylation enrichment (c-Abl (mouse)) | phosphorylation enrichment (Jak2) | phosphorylation enrichment (c-Src) | phosphorylation enrichment (Fes) |
| --- | --- | --- | --- | --- | --- | --- | --- | --- | --- | --- | --- | --- | --- | --- | --- | --- |
| QPGTDYKIFLF [FN1_Y1970_YF] | 0.609 | 0.548 | 0.4 | 1.17 | 0.591 | 0.673 | 0.848 | 1.21 | 1.05 | 0.924 | 0.899 | 2.09 | 1.4 | 1.72 | 0.674 | 2.44 |
| SASSSYSRSRS [SRRM4_Y549_R547S] | 0.967 | 0.638 | 0.393 | 0.378 | 0.462 | 0.447 | 0.487 | 0.46 | 0.275 | 0.412 | 0.386 | 0.555 | 0.408 | 0.451 | 0.432 | 0.482 |
| EERKTYVNTML [TEK_Y1102_T1106M] | 12.9 | 0.606 | 0.661 | 0.428 | 0.44 | 0.354 | 0.442 | 0.506 | 0.385 | 0.378 | 0.42 | 0.71 | 0.55 | 0.637 | 0.362 | 0.803 |
| FNNPAYYVLEG [INPPL1_Y986] | 0.992 | 1.12 | 3.95 | 12.1 | 1.75 | 7.95 | 0.704 | 9.49 | 0.851 | 1.11 | 0.485 | 1.2 | 0.767 | 4.76 | 2.06 | 0.958 |
| HFPDVYAWEQL [ALX3_Y181_R183W_YF] | 1.23 | 0.662 | 0.809 | 0.616 | 7.03 | 2.25 | 0.935 | 0.674 | 0.922 | 3.06 | 11.3 | 1.2 | 0.632 | 0.893 | 5.25 | 1.46 |
| FETSHYPASPD [CTNND2_Y1217_YF] | 1.03 | 0.992 | 0.383 | 0.475 | 0.361 | 0.323 | 0.408 | 0.508 | 0.483 | 0.435 | 0.486 | 0.52 | 0.463 | 0.553 | 0.31 | 0.77 |
| ERLWVYGMSSS [F8_Y1728_D1727V] | 0.872 | 0.688 | 0.639 | 0.529 | 0.565 | 0.395 | 0.612 | 0.729 | 0.669 | 0.574 | 0.539 | 1.17 | 0.691 | 1.18 | 0.556 | 1.61 |
| KKHIPYRQHKS [CSNK1G2_Y206_E208Q] | 2.07 | 1.84 | 1.79 | 1.28 | 1.08 | 1.07 | 1.36 | 3.67 | 2.12 | 1.56 | 2.37 | 2.09 | 3.26 | 4.52 | 1.34 | 3.45 |
| YRQNVYIPGSN [PCDHGA1_Y895] | 0.829 | 0.661 | 0.43 | 0.427 | 0.435 | 0.424 | 0.429 | 0.519 | 0.421 | 0.435 | 0.405 | 0.564 | 0.531 | 0.576 | 0.454 | 0.626 |
| TNIKRYHIAKG [HARS1_Y150_V155G] | 0.93 | 0.972 | 0.867 | 0.351 | 0.409 | 0.405 | 0.39 | 0.356 | 0.311 | 0.367 | 0.33 | 0.506 | 0.503 | 0.368 | 0.408 | 0.479 |
| DTCPPYVLSQG [GJB4_Y237] | 0.679 | 0.589 | 0.518 | 0.552 | 0.663 | 0.439 | 0.417 | 0.77 | 0.637 | 0.507 | 0.671 | 1.12 | 1.07 | 1.21 | 0.637 | 1.32 |

Now from value to sequence, other results behind:

| SH2 binding enrichment (Grb2 SH2) | SH2 binding enrichment (SHP2-C SH2) | SH2 binding enrichment (c-Src SH2) | Sequence | phosphorylation enrichment (FGFR1) | phosphorylation enrichment (Fyn) | phosphorylation enrichment (MERTK) | phosphorylation enrichment (EPHB2) | phosphorylation enrichment (FGFR3) | phosphorylation enrichment (EPHB1) | phosphorylation enrichment (Hck) | phosphorylation enrichment (Fer (mouse)) | phosphorylation enrichment (AncSZ) | phosphorylation enrichment (c-Abl (mouse)) | phosphorylation enrichment (Jak2) | phosphorylation enrichment (c-Src) | phosphorylation enrichment (Fes) |
| --- | --- | --- | --- | --- | --- | --- | --- | --- | --- | --- | --- | --- | --- | --- | --- | --- |
| 0.727 | 1.12 | 0.589 | LINSVYGCSRQ [TMPRSS6_Y290_T287N] | 1.02 | 3.32 | 1.21 | 1 | 0.974 | 1.01 | 4.43 | 0.863 | 1.43 | 1.37 | 1.82 | 5.15 | 1.57 |
| 0.791 | 1.04 | 0.484 | PMWHPYKADVT [TP53TG5_Y255_V257A] | 0.309 | 0.565 | 0.428 | 0.572 | 0.6 | 0.657 | 0.615 | 0.588 | 0.851 | 0.94 | 0.911 | 0.756 | 1.12 |
| 0.976 | 0.927 | 0.661 | NREGVYTDFAP [TGFBI_Y537_V539D] | 0.645 | 9.31 | 1.71 | 0.624 | 0.608 | 0.578 | 2.95 | 2.51 | 0.843 | 0.868 | 0.823 | 7.49 | 1.13 |
| 0.804 | 0.679 | 0.47 | TNEFEYDELIV [TGM1_Y136_D132N_YF] | 0.658 | 0.475 | 0.483 | 0.424 | 0.887 | 0.51 | 0.747 | 0.709 | 1.61 | 0.951 | 1.37 | 0.669 | 1.61 |
| 1.11 | 0.66 | 0.412 | NPQKSYFICLY [WAS_Y83_R86C] | 0.848 | 0.443 | 0.557 | 0.604 | 0.975 | 0.675 | 0.438 | 0.496 | 1.11 | 0.925 | 1.12 | 0.415 | 1.2 |
